Measurements taken from US20180057596A1 (AstraZeneca / MedImmune, published 2018).
Where a chain is given by its changes, count along the chain named. Where “and” joins values, the source holds several entries; their conditions need not be identical. Equal values may be shown once. Read-outs that look alike come from different tables or passages of the source.

T1: human IL-4Rα on TF-1 cells (human, UniProt P24394 26-825)
T1 sequence (looked up): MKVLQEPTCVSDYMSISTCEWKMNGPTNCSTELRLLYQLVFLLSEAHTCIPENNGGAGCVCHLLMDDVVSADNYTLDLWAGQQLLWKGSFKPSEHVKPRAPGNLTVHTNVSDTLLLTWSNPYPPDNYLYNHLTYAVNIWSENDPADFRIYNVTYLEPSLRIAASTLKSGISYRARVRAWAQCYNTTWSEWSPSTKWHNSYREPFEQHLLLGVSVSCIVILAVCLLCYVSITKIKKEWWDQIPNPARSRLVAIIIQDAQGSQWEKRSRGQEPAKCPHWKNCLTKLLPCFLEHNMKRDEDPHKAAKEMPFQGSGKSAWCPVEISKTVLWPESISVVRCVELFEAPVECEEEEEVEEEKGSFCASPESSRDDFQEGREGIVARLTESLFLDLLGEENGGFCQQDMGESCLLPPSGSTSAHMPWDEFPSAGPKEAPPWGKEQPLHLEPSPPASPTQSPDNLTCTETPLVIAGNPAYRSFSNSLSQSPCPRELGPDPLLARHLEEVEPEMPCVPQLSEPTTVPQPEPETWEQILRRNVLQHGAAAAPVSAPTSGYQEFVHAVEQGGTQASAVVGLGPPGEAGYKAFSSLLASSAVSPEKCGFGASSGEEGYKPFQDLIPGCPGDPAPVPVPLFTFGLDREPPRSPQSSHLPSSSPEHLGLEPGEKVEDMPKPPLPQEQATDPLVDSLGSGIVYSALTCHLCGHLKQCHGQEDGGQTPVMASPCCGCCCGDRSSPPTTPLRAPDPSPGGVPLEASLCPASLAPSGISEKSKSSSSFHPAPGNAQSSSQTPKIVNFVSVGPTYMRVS

T2: cynomolgus IL-4Rα HIS FLAG (cynomolgus)
T2 construct: also called Cyno IL4Rα HIS FLAG; not shown: HIS and FLAG tags and any vector-encoded linker of the cynomolgus HIS FLAG construct
T2 chain: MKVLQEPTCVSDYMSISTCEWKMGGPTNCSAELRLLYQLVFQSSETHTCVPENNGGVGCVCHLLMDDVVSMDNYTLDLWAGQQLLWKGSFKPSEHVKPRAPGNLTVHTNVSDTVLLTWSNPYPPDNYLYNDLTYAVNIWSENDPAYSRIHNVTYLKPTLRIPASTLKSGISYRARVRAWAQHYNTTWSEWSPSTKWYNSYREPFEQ

B1: human IL-4Rα HIS FLAG (in house HEK-EBNA derived) (receptor)
chain: MKVLQEPTCVSDYMSISTCEWKMNGPTNCSTELRLLYQLVFLLSEAHTCIPENNGGAGCVCHLLMDDVVSADNYTLDLWAGQQLLWKGSFKPSEHVKPRAPGNLTVHTNVSDTLLLTWSNPYPPDNYLYNHLTYAVNIWSENDPADFRIYNVTYLEPSLRIAASTLKSGISYRARVRAWAQCYNTTWSEWSPSTKWHNSYREPFNPAFLYKVVGAADYKDDDDKAAHHHHHHHHHH
modifications: biotinylated where used as the labelled partner in the DELFIA assay
notes: also called HuIL-4Rα; Human IL4-Rα/FLAG/HIS tag
B2: Antibody 1 IgG (antibody, V domains shown)
VH: QVQLVQSGAEVKKPGASVKVSCKASGYAFTSYYMHWARQAPGQGLEWMGIINPSGGSTSYAQKFQGRVTMTRDTSTSTVYMELSSLRSEDTAVYYCARGKWWLDYWGKGTLVTVSS
VL: QSVLTQPPSVSAAPGQKVTISCSGGSSNIGNSYVSWYQQLPGTAPKLLIYDNNKRPSGIPDRFSGSKSGTSATLAITGLQTGDEADYYCGTWDTSLSANYVFGTGTKLTVL
B3: Antibody 24 (PGL) IgG (antibody, V domains shown)
VH: B2 VH with A37V, S54R, W101Y, L103M, D104Y, Y105D
VL: B2 VL with A75G, Y88F, L96T, S97V, A98W, N99E, Y100W, V101P
B4: Antibody 20 IgG (antibody, V domains shown)
VH: B2 VH with W101Y, L103M, D104Y, Y105D
VL: B2 VL with L96T, S97V, A98W, N99E, Y100W, V101P
B5: Antibody 37 IgG (antibody, V domains shown)
VH: B2 VH with S54R, T69A, S88P, W101Y, L103M, D104Y, Y105D
VL: B2 VL with S26G, N28S, I59V, L96P, S97V, A98W, N99E, Y100W, V101P
B6: Antibody 2 IgG (antibody, V domains shown)
VH: B2 VH with D104Y, Y105N
VL: B2 VL with L96Q, S97P, A98P, Y100P, V101L
B7: Antibody 9 IgG (antibody, V domains shown)
VH: B2 VH with D104Y, Y105N
VL: B2 VL with L96T, S97T, A98M, N99Y, Y100P, V101L

Key:
[1] = target: T3, antibody tested in the epitope mapping of Example 5; assay: HTRF competition, test protein against biotinylated human IL-4Rα/Fc for cryptate labelled antibody
T3 construct: also called an antibody of the invention
Experimental: (§1) Antibody was cryptate labelled with Eu³⁺ Cryptate labelling kit according to the manufacturer's instructions (CisBio International Cat No. 62EUSPEA) and IL-4R•/Fc (R&D systems Cat. No. 604-4R-050) was Biotin labelled with EZ Link NHS-Biotin according to the manufacturer's instructions (Perbio Cat No. 20217). […] 1% BSA, 0. 4M potassium fluoride in a total volume of 20 μl in a 384 well microtitre plate (Greiner). To the assay a dilution series (from 1000 nM to 0.017 nM) of test proteins was added and the assay incubated overnight at 4° C. FRET signal was detected using a PerkinElmer EnVision plate reader using a 320 nm excitation filter and 620 nm and 665 nm emission filters. Results were calculated from the 665/620 ratio as a percentage of specific binding (signal with no competitor antigen). Results were analysed with Prism (GraphPad Software) using the sigmoidal dose response model.
Antibody binding of chimeric molecules was tested in an HTRF (Homogeneous Time Resolved Fluorescence) competition assay. Molecules which bound antibody at the same paratope as human IL-4R• inhibited the binding interaction, leading to a reduction in signal. From inhibition curves IC₅₀ values for human IL-4R•, mouse IL-4R• and chimeric molecules were calculated (Table 5). […] Chimeras that gave similar IC₅₀ values to native human IL-4R• still contained the epitope.

[2] = target: T3, antibody tested in the epitope mapping …; assay: as above; remark: listed apart in the source
Experimental: as §1

[3] = target: T3, antibody tested in the epitope mapping …; assay: as above; remark: listed apart in the source
Experimental: as §1

[4] = target: T1, human IL-4Rα on TF-1 cells; assay: cell-based or functional assay
[5] = target: T1, human IL-4Rα on TF-1 cells; assay: cell-based or functional assay; remark: listed apart in the source
[6] = target: T2, cynomolgus IL-4Rα HIS FLAG; assay: SPR (BIAcore 2000), IgG captured on Protein G', receptor as analyte, 1:1 Langmuir
Experimental: (§2) In brief, Protein G′ (Sigma Aldrich, P4689) was covalently coupled to the surface of a CM5 sensor chip using standard amine coupling reagents according to manufacturer's instructions (BIAcore). This Protein G′ surface was used to capture a constant amount of purified anti-IL4R• antibodies or isotype control via the Fc domain. Human or cynomolgus IL-4R• HIS FLAG prepared in HBS-EP buffer (BIAcore AB), at a range of concentrations, between 100 nM and 0.2 nM, were passed over the sensor chip surface. […] The resulting sensorgrams were evaluated using BIA evaluation 4.1 software and fitted to 1:1 Langmuir binding model, to provide the relative binding data. The experiments were performed over the course of at least three separate days to calculate an average monovalent affinity.

[7] = target: B1; assay: as above
Experimental: as §2

[8] = target: T1, human IL-4Rα on TF-1 cells; assay: cell-based or functional assay; remark: listed apart in the source
[9] = target: B1; assay: SPR (BIAcore 2000), value in parentheses under the mean, taken as a single determination; single determination, one of three separate days; the mean is 0.255 nM
Experimental: as §2

[10] = target: T2, cynomolgus IL-4Rα HIS FLAG; assay: SPR (BIAcore 2000), value in parentheses under the mean, taken as a single determination
Experimental: as §2

[11] = target: B1; assay: as above
Experimental: as §2

Binder | Kd [6] | koff [6] | kon [6] | Kd [7] | koff [7] | kon [7] | IC50 (pM), IL-4 induced TF-1 cell proliferation [8] | IC50 (pM), IL-13 induced TF-1 cell proliferation [8] | further results
B1 | – | – | – | – | – | – | – | – | IC50 [1]: 0.673 nM; IC50 [2]: 0.673 nM; IC50 [3]: 0.673 nM
B2 | – | – | – | – | – | – | – | – | IC50 geomean, IL-4 induced TF-1 cell proliferation [4]: 38 nM; IC50 geomean, IL-13 induced TF-1 cell proliferation [4]: 18 nM
B3 | – | – | – | – | – | – | – | – | IC50 (pM), IL-4 induced TF-1 cell proliferation [5]: 15.3 pM; IC50 (pM), IL-13 induced TF-1 cell proliferation [5]: 55 pM
B4 | 27.7 nM | 0.00452 s⁻¹ | 163000 M⁻¹ s⁻¹ | 1.25 nM | 0.000873 s⁻¹ | 698000 M⁻¹ s⁻¹ | 31.1 pM | 66.1 pM | –
B5 | 2.97 nM | 0.000688 s⁻¹ | 243000 M⁻¹ s⁻¹ | 0.255 nM | 0.000162 s⁻¹ | 640000 M⁻¹ s⁻¹ | 10.4 pM | 22.1 pM | Kd [9]: 0.313 nM; Kd [10]: 2.59 nM and 2.36 nM and 3.96 nM; Kd [11]: 0.25 nM and 0.203 nM
B6 | 47.5 nM | 0.00459 s⁻¹ | 96700 M⁻¹ s⁻¹ | 4.51 nM | 0.00294 s⁻¹ | 651000 M⁻¹ s⁻¹ | 41.7 pM | 171 pM | –
B7 | 124 nM | 0.0163 s⁻¹ | 131000 M⁻¹ s⁻¹ | 0.422 nM | 0.000229 s⁻¹ | 543000 M⁻¹ s⁻¹ | 8.88 pM | 20.4 pM | –
